To fix the notation:
B1: AB200-(2Vk8)_R2-CDR1-hs-v4 (antibody)
heavy: QVQLVQSGAEVKKPGSSVKVSCKASGGTFSSYAISWVRQAPGQGLEWMGATYRSQSDTFYNQKFKSRVTITADKSTSTAYMELSSLRSEDTAVYYCARGAVYHGYDVIDNWGQGTLVTVSSASTKGPSVFPLAPSSKSTSGGTAALGCLVKDYFPEPVTVSWNSGALTSGVHTFPAVLQSSGLYSLSSVVTVPSSSLGTQTYICNVNHKPSNTKVDKKVEPKSC
light: DIQMTQSPSSLSASVGDRVTITCRASQSISSYINWYQQKPGKAPKLLIYATSNLQIGVPSRFSGSGSGTDFTLTISSLQPEDFATYYCQQFRKLPWSFGQGTKLEIKRTVAAPSVFIFPPSDEQLKSGTASVVCLLNNFYPREAKVQWKVDNALQSGNSQESVTEQDSKDSTYSLSSTLTLSKADYEKHKVYACEVTHQGLSSPVTKSFNRGEC
B2: AB200-R1H32-R2Vk40 (antibody)
heavy: B1 heavy with S31N, A33W, I34M, S35H, Q55H, F59Y, V101I
light: B1 light with L54I, I56S, F91Y, K93R, L94I, S97T
B3: AB200-R1H32-R2Vk17 (antibody)
heavy: B1 heavy with S31N, A33W, I34M, S35H, Q55H, F59Y, V101I
light: B1 light with T51A, N53S, I56S, F91Y, L94I
B4: AB200-R1H32-R2Vk8 (antibody)
heavy: B1 heavy with S31N, A33W, I34M, S35H, Q55H, F59Y, V101I
light: B1 light
B5: AB200-R1H32-R2Vk2 (antibody)
heavy: B1 heavy with S31N, A33W, I34M, S35H, Q55H, F59Y, V101I
light: B1 light with T51A, N53S, I56S
B6: AB200-R1H32-R2Vk43 (antibody)
heavy: B1 heavy with S31N, A33W, I34M, S35H, Q55H, F59Y, V101I
light: B1 light with L54I, I56S, L94I, S97T
B7: AB200-R1H32-R2Vk47 (antibody)
heavy: B1 heavy with S31N, A33W, I34M, S35H, Q55H, F59Y, V101I
light: B1 light with F91Y, L94I
B8: AB200-R1H32-R2Vk41 (antibody)
heavy: B1 heavy with S31N, A33W, I34M, S35H, Q55H, F59Y, V101I
light: B1 light with L54I, I56S, K93R, S97T
B9: AB200-R1H32-R2Vk4 (antibody)
heavy: B1 heavy with S31N, A33W, I34M, S35H, Q55H, F59Y, V101I
light: B1 light with I33L, L54I, I56S
B10: AB200-R1H32-R2Vk7 (antibody)
heavy: B1 heavy with S31N, A33W, I34M, S35H, Q55H, F59Y, V101I
light: B1 light with L54I, I56S
B11: AB200-R1H32-R2Vk6 (antibody)
heavy: B1 heavy with S31N, A33W, I34M, S35H, Q55H, F59Y, V101I
light: B1 light with I56S
B12: AB200-R1H32-R2Vk42 (antibody)
heavy: B1 heavy with S31N, A33W, I34M, S35H, Q55H, F59Y, V101I
light: B1 light with L54I, I56S, F91Y, L94I

Positions count from the first letter of the chain named.

The nature of one series: ThermoFluor thermostability (Tm). It is filed as physicochemical. Conditions: Fab fragment; heavy chain clone paired with light chain AB200-(2Vk8). (In general: In DSF a fluorescence change marks the thermal transition of the protein.)
Turning to B1, the Tm is 76.495 °C.

Still in this series, the particulars now being: Fab fragment; light chain clone paired with heavy chain AB200_R1_VH32.
With B2, the Tm was 76.379 °C.
The same measure, in the same setting: the value for B3 was 76.415 °C.
B4: the Tm was 80.002 °C.
Same read-out and setting: the value for B5 was 79.715 °C; that for B6 was 78.820 °C; that for B7 was 75.976 °C.
On the same count and under the same terms, as for B8, the figure is 79.593 °C.
The same measure, in the same setting: as for B9, the figure is 79.449 °C; as for B10, 79.001 °C.
Take B11: the Tm came to 79.773 °C.
On the same count and under the same terms, as for B12, the figure is 75.027 °C.
